In one assay the target is T1, human α-CGRP (Homo sapiens, UniProt P06881).
T1 construct: 1-37 (WT); purchased; host or cells: synthetic peptide
T1 sequence (P06881 83-119 limits assumed): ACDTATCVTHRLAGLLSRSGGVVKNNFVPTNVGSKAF
The assay is described as follows: Biacore affinity of antibody G1 Fab and variants to human α-CGRP. The assay is classed as binding. Particulars: 37° C., Fab, screening mode unless underlined. A digest of the protocol:
(§1)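 Fab fragments flowed over N-biotinylated CGRP captured on SA chip in HBS-EP pH 7.4; titration series fit globally to 1:1 Langmuir model, KD = koff/kon. For very slow off-rates, kon from 550 nM–1 nM series with 30 s dissociation, koff from 2-hour dissociation.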

The next assay has as its target T2, rat α-CGRP (Rattus norvegicus, UniProt P01256).
T2 construct: rat α (1-37); host or cells: synthetic peptide
T2 sequence (P01256 83-119 limits assumed): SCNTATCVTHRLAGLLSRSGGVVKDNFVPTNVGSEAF
Kind of assay: Biacore affinity of antibody G1 Fab and variants to rat α-CGRP. The assay is classed as binding. Particulars: 37° C., Fab, screening mode unless underlined. The method in brief: as §1

B1: M26: G1 variant: L1 R28N; H2 A57G; HC-FW3 L99T,A100V (antibody, V domains shown)
VH: EVQLVESGGGLVQPGGSLRLSCAASGFTFSNYWISWVRQAPGKGLEWVAEIRSESDGSATHYAEAVKGRFTISRDNAKNSLYLQMNSLRAEDTAVYYCTVYFDYGLAIQNYWGQGTLVTVSS
VL: EIVLTQSPATLSLSPGERATLSCKASKNVTTYVSWYQQKPGQAPRLLIYGASNRYLGIPARFSGSGSGTDFTLTISSLEPEDFAVYYCSQSYNYPYTFGQGTKLEIK
As for B1, in the assay with human α-CGRP, the α-human koff worked out at 0.000148 s⁻¹. Further, the α-rat koff with rat α-CGRP was 0.000924 s⁻¹.

B2: M36: G1 variant: L1 R28N,T30R; HC-FW3 L99T,A100V (antibody, V domains shown)
VH: EVQLVESGGGLVQPGGSLRLSCAASGFTFSNYWISWVRQAPGKGLEWVAEIRSESDASATHYAEAVKGRFTISRDNAKNSLYLQMNSLRAEDTAVYYCTVYFDYGLAIQNYWGQGTLVTVSS
VL: EIVLTQSPATLSLSPGERATLSCKASKNVRTYVSWYQQKPGQAPRLLIYGASNRYLGIPARFSGSGSGTDFTLTISSLEPEDFAVYYCSQSYNYPYTFGQGTKLEIK
Take B2: the α-human koff with human α-CGRP was determined as 0.000239 s⁻¹. In addition, the α-rat koff with rat α-CGRP was 0.00479 s⁻¹.

B3: M31: G1 variant: L1 R28N,T30G; H2 E54K,A57G; HC-FW3 L99T,A100V (antibody, V domains shown)
VH: EVQLVESGGGLVQPGGSLRLSCAASGFTFSNYWISWVRQAPGKGLEWVAEIRSKSDGSATHYAEAVKGRFTISRDNAKNSLYLQMNSLRAEDTAVYYCTVYFDYGLAIQNYWGQGTLVTVSS
VL: EIVLTQSPATLSLSPGERATLSCKASKNVGTYVSWYQQKPGQAPRLLIYGASNRYLGIPARFSGSGSGTDFTLTISSLEPEDFAVYYCSQSYNYPYTFGQGTKLEIK
The molecule B3 registered a α-human koff with human α-CGRP of 0.000347 s⁻¹. Also, in the assay with rat α-CGRP, the α-rat koff is 0.00361 s⁻¹.

B4: M32: G1 variant: L1 R28N,T30G; H2 E54K,A57H; HC-FW3 L99T,A100V (antibody, V domains shown)
VH: EVQLVESGGGLVQPGGSLRLSCAASGFTFSNYWISWVRQAPGKGLEWVAEIRSKSDHSATHYAEAVKGRFTISRDNAKNSLYLQMNSLRAEDTAVYYCTVYFDYGLAIQNYWGQGTLVTVSS
VL: EIVLTQSPATLSLSPGERATLSCKASKNVGTYVSWYQQKPGQAPRLLIYGASNRYLGIPARFSGSGSGTDFTLTISSLEPEDFAVYYCSQSYNYPYTFGQGTKLEIK
Consider B4, for which the α-human koff in the assay with human α-CGRP is 0.000271 s⁻¹. In addition, in the assay with rat α-CGRP, the α-rat koff was determined as 0.00296 s⁻¹.

B5: M40: G1 variant: L1 R28N; L2 G50A,L56T; H2 E54K,A57L; HC-FW3 L99T,A100V (antibody, V domains shown)
VH: EVQLVESGGGLVQPGGSLRLSCAASGFTFSNYWISWVRQAPGKGLEWVAEIRSKSDLSATHYAEAVKGRFTISRDNAKNSLYLQMNSLRAEDTAVYYCTVYFDYGLAIQNYWGQGTLVTVSS
VL: EIVLTQSPATLSLSPGERATLSCKASKNVTTYVSWYQQKPGQAPRLLIYAASNRYTGIPARFSGSGSGTDFTLTISSLEPEDFAVYYCSQSYNYPYTFGQGTKLEIK
In the assay with human α-CGRP, B5 yielded a α-human koff of 0.00128 s⁻¹. For the same molecule, in the assay with rat α-CGRP, the α-rat koff is 0.36 s⁻¹.

B6: M38: G1 variant: L1 R28N,T30W; HC-FW3 L99T,A100V (antibody, V domains shown)
VH: EVQLVESGGGLVQPGGSLRLSCAASGFTFSNYWISWVRQAPGKGLEWVAEIRSESDASATHYAEAVKGRFTISRDNAKNSLYLQMNSLRAEDTAVYYCTVYFDYGLAIQNYWGQGTLVTVSS
VL: EIVLTQSPATLSLSPGERATLSCKASKNVWTYVSWYQQKPGQAPRLLIYGASNRYLGIPARFSGSGSGTDFTLTISSLEPEDFAVYYCSQSYNYPYTFGQGTKLEIK
In the assay with human α-CGRP, B6 yielded a α-human koff of 0.000218 s⁻¹. Also, in the assay with rat α-CGRP, the α-rat koff was 0.00511 s⁻¹.

B7: M35: G1 variant: L1 R28N,T30G; H2 E54K,A57S; HC-FW3 L99T,A100V (antibody, V domains shown)
VH: EVQLVESGGGLVQPGGSLRLSCAASGFTFSNYWISWVRQAPGKGLEWVAEIRSKSDSSATHYAEAVKGRFTISRDNAKNSLYLQMNSLRAEDTAVYYCTVYFDYGLAIQNYWGQGTLVTVSS
VL: EIVLTQSPATLSLSPGERATLSCKASKNVGTYVSWYQQKPGQAPRLLIYGASNRYLGIPARFSGSGSGTDFTLTISSLEPEDFAVYYCSQSYNYPYTFGQGTKLEIK
In the assay with human α-CGRP, B7 had a α-human koff of 0.000339 s⁻¹. The α-rat koff in the assay with rat α-CGRP came out at 0.00399 s⁻¹.

B8: M34: G1 variant: L1 R28N,T30G; H2 E54K,A57N,S58T; HC-FW3 L99T,A100V (antibody, V domains shown)
VH: EVQLVESGGGLVQPGGSLRLSCAASGFTFSNYWISWVRQAPGKGLEWVAEIRSKSDNTATHYAEAVKGRFTISRDNAKNSLYLQMNSLRAEDTAVYYCTVYFDYGLAIQNYWGQGTLVTVSS
VL: EIVLTQSPATLSLSPGERATLSCKASKNVGTYVSWYQQKPGQAPRLLIYGASNRYLGIPARFSGSGSGTDFTLTISSLEPEDFAVYYCSQSYNYPYTFGQGTKLEIK
Take B8: the α-human koff in the assay with human α-CGRP was 0.000646 s⁻¹. In the assay with rat α-CGRP, this molecule had a α-rat koff of 0.00217 s⁻¹.

B9: M39: G1 variant: L1 R28N; L2 G50A,L56T; H2 A57N,S58Y; HC-FW3 L99T,A100V (antibody, V domains shown)
VH: EVQLVESGGGLVQPGGSLRLSCAASGFTFSNYWISWVRQAPGKGLEWVAEIRSESDNYATHYAEAVKGRFTISRDNAKNSLYLQMNSLRAEDTAVYYCTVYFDYGLAIQNYWGQGTLVTVSS
VL: EIVLTQSPATLSLSPGERATLSCKASKNVTTYVSWYQQKPGQAPRLLIYAASNRYTGIPARFSGSGSGTDFTLTISSLEPEDFAVYYCSQSYNYPYTFGQGTKLEIK
In the case of B9, in the assay with human α-CGRP, the α-human koff worked out at 0.000425 s⁻¹. This molecule also returned a α-rat koff with rat α-CGRP of 0.00995 s⁻¹.

B10: M27: G1 variant: L1 R28N,T30A; HC-FW3 L99T,A100V (antibody, V domains shown)
VH: EVQLVESGGGLVQPGGSLRLSCAASGFTFSNYWISWVRQAPGKGLEWVAEIRSESDASATHYAEAVKGRFTISRDNAKNSLYLQMNSLRAEDTAVYYCTVYFDYGLAIQNYWGQGTLVTVSS
VL: EIVLTQSPATLSLSPGERATLSCKASKNVATYVSWYQQKPGQAPRLLIYGASNRYLGIPARFSGSGSGTDFTLTISSLEPEDFAVYYCSQSYNYPYTFGQGTKLEIK
B10 showed a α-human koff with human α-CGRP of 0.000357 s⁻¹. The molecule further had a α-rat koff in the assay with rat α-CGRP of 0.00341 s⁻¹.

B11: M33: G1 variant: L1 R28N,T30G; H2 E54K,A57N,S58G; HC-FW3 L99T,A100V (antibody, V domains shown)
VH: EVQLVESGGGLVQPGGSLRLSCAASGFTFSNYWISWVRQAPGKGLEWVAEIRSKSDNGATHYAEAVKGRFTISRDNAKNSLYLQMNSLRAEDTAVYYCTVYFDYGLAIQNYWGQGTLVTVSS
VL: EIVLTQSPATLSLSPGERATLSCKASKNVGTYVSWYQQKPGQAPRLLIYGASNRYLGIPARFSGSGSGTDFTLTISSLEPEDFAVYYCSQSYNYPYTFGQGTKLEIK
Take B11: in the assay with human α-CGRP, the α-human koff amounted to 0.00075 s⁻¹. Further, in the assay with rat α-CGRP, the α-rat koff came to 0.00922 s⁻¹.

B12: M30: G1 variant: L1 R28N,T30G; H2 E54K,A57E; HC-FW3 L99T,A100V (antibody, V domains shown)
VH: EVQLVESGGGLVQPGGSLRLSCAASGFTFSNYWISWVRQAPGKGLEWVAEIRSKSDESATHYAEAVKGRFTISRDNAKNSLYLQMNSLRAEDTAVYYCTVYFDYGLAIQNYWGQGTLVTVSS
VL: EIVLTQSPATLSLSPGERATLSCKASKNVGTYVSWYQQKPGQAPRLLIYGASNRYLGIPARFSGSGSGTDFTLTISSLEPEDFAVYYCSQSYNYPYTFGQGTKLEIK
Take B12: the α-human koff in the assay with human α-CGRP worked out at 0.00059 s⁻¹. The same molecule showed a α-rat koff in the assay with rat α-CGRP of 0.00638 s⁻¹.

B13: M28: G1 variant: L1 R28N,T30D; H2 E54R,A57N; HC-FW3 L99T,A100V (antibody, V domains shown)
VH: EVQLVESGGGLVQPGGSLRLSCAASGFTFSNYWISWVRQAPGKGLEWVAEIRSRSDNSATHYAEAVKGRFTISRDNAKNSLYLQMNSLRAEDTAVYYCTVYFDYGLAIQNYWGQGTLVTVSS
VL: EIVLTQSPATLSLSPGERATLSCKASKNVDTYVSWYQQKPGQAPRLLIYGASNRYLGIPARFSGSGSGTDFTLTISSLEPEDFAVYYCSQSYNYPYTFGQGTKLEIK
Turning to B13, the α-human koff with human α-CGRP was 9.96e-05 s⁻¹. Besides, the α-rat koff with rat α-CGRP was determined as 0.00125 s⁻¹.

B14: M37: G1 variant: L1 R28N,T30S; H2 A57G; HC-FW3 L99T,A100V (antibody, V domains shown)
VH: EVQLVESGGGLVQPGGSLRLSCAASGFTFSNYWISWVRQAPGKGLEWVAEIRSESDGSATHYAEAVKGRFTISRDNAKNSLYLQMNSLRAEDTAVYYCTVYFDYGLAIQNYWGQGTLVTVSS
VL: EIVLTQSPATLSLSPGERATLSCKASKNVSTYVSWYQQKPGQAPRLLIYGASNRYLGIPARFSGSGSGTDFTLTISSLEPEDFAVYYCSQSYNYPYTFGQGTKLEIK
Turning to B14, in the assay with human α-CGRP, the α-human koff is 0.000226 s⁻¹. In the assay with rat α-CGRP, this molecule displayed a α-rat koff of 0.00145 s⁻¹.

B15: M29: G1 variant: L1 R28N,T30G; HC-FW3 L99T,A100V (antibody, V domains shown)
VH: EVQLVESGGGLVQPGGSLRLSCAASGFTFSNYWISWVRQAPGKGLEWVAEIRSESDASATHYAEAVKGRFTISRDNAKNSLYLQMNSLRAEDTAVYYCTVYFDYGLAIQNYWGQGTLVTVSS
VL: EIVLTQSPATLSLSPGERATLSCKASKNVGTYVSWYQQKPGQAPRLLIYGASNRYLGIPARFSGSGSGTDFTLTISSLEPEDFAVYYCSQSYNYPYTFGQGTKLEIK
The molecule B15 registered a α-human koff in the assay with human α-CGRP of 0.00038 s⁻¹. For the same molecule, the α-rat koff with rat α-CGRP was determined as 0.00359 s⁻¹.

The values above are taken from patent US10766952B2, “Methods for reducing migraine frequency in a subject in need thereof” (Beth Israel Deaconess Medical Center, Inc., priority 2017, dated 2020).
